Results from IntAct's records for PubMed 23274085.

B1: Sestrin-2 (Homo sapiens), P58004 (parent)
chain: MIVADSECRAELKDYLRFAPGGVGDSGPGEEQRESRARRGPRGPSAFIPVEEVLREGAESLEQHLGLEALMSSGRVDNLAVVMGLHPDYFTSFWRLHYLLLHTDGPLASSWRHYIAIMAAARHQCSYLVGSHMAEFLQTGGDPEWLLGLHRAPEKLRKLSEINKLLAHRPWLITKEHIQALLKTGEHTWSLAELIQALVLLTHCHSLSSFVFGCGILPEGDADGSPAPQAPTPPSEQSSPPSRDPLNNSGGFESARDVEALMERMQQLQESLLRDEGTSQEEMESRFELEKSESLLVTPSADILEPSPHPDMLCFVEDPTFGYEDFTRRGAQAPPTFRAQDYTWEDHGYSLIQRLYPEGGQLLDEKFQAAYSLTYNTIAMHSGVDTSVLRRAIWNYIHCVFGIRYDDYDYGEVNQLLERNLKVYIKTVACYPEKTTRRMYNLFWRHFRHSEKVHVNLLLLEARMQAALLYALRAITRYMT

Variants of: B1
Details: with keap1_human KEAP1, Q14145
keap1_human KEAP1, Q14145, sequence (Q14145 whole entry): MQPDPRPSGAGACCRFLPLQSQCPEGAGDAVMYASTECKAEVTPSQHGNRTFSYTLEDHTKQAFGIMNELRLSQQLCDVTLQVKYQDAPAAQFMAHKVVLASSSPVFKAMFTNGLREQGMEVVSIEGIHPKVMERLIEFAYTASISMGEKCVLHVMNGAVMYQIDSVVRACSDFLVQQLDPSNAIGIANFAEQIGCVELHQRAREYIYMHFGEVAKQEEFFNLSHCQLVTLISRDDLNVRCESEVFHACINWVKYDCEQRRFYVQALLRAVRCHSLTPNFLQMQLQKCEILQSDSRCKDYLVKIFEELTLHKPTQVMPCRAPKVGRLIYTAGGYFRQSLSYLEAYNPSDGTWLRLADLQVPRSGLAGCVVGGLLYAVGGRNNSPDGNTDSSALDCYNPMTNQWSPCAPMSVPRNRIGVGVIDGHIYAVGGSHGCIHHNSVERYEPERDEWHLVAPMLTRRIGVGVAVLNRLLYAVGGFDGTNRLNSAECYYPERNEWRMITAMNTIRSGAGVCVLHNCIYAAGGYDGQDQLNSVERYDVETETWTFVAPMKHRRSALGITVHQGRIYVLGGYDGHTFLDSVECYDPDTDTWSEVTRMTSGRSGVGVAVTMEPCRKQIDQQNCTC
For C125S, the “effect of a mutation on the interaction” value was “with no effect”.
